B1: TEKT4 (parent)
chain: YARYHQAFADRDQSERQRHESQQL
B2: TBX6 (parent)
chain: AFLELPHGSGGSGYPAAPPAVPFA

Variants of: B1
Experiment: protein stability index of a GFP-peptide fusion (GPS, HEK-293T) (PSI 1-6); higher = more stable
Conditions: c terminus: a fixed tail appended
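Further: lentivirally expressed fusions sorted by FACS into six bins by GFP to DsRed ratio, PSI derived from sequencing read proportions per bin multiplied by bin number.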

Protein stability index of substitutions, site by site:
Q22: I 1.66, A 1.8, Y 1.65, M 2.2, S 1.92, V 1.79, R 1.85, T 1.63, F 1.9, P 2.17, L 1.82, C 1.57, D 2.17, W 1.43, N 2.1, G 1.85, H 2.36, E 2.25, K 2.17
H19: S 2.25, A 2.11, D 2.25, V 2.31, W 1.94, G 2.64, M 2.35, E 2.19, L 1.65, I 2.53, P 2.51, C 2.39, F 1.48, T 1.97, R 2.05, K 2.63, N 2.08, Y 1.61, Q 2.51
S21: A 2.01, D 1.78, V 2.16, R 2.46, Y 1.29, E 2.5, K 1.46, L 1.83, T 3.06, C 2.77, M 1.65, Q 1.59, N 1.98, G 2.32, I 2.41, F 1.59, H 1.99, W 1.69, P 2.39
E20: W 1.51, T 2.27, F 1.76, V 2.21, I 1.57, H 2.22, N 2.18, Y 2.06, P 2.23, M 1.74, C 2.01, A 2.51, D 2.36, K 2.06, R 2.13, Q 1.53, G 2.19, S 2.3, L 1.64
Q17: W 2.22, Y 2.72, T 2, R 1.94, N 1.68, M 1.73, P 2.11, V 2.31, S 1.87, L 2.32
Q23: P 1.92, N 1.91, A 1.84, T 1.85, G 2.01, H 2.34, F 1.44, M 1.94, V 1.68, D 2.37, C 2.11, R 2.65, K 3, L 2.63, S 2.41, W 1.7, Y 2.19, I 1.66, E 1.97
L24: E 2.24, Y 2.12, I 2.03, S 2.27, M 2.21, G 2.37, C 1.67, A 1.88, F 2.37, P 1.64, W 1.85, N 2.23, R 1.68, V 1.57, T 2.15, H 2.42, Q 2.57, D 2.14, K 1.73
R18: Y 2.82, M 1.78, H 2.81, S 2.59, D 2.36, T 2.45, A 1.9, F 2.23, L 2.18, K 2.26, N 2.01, G 3.52, Q 2.24, P 2.26, V 2.31, W 2.01, C 2.6, E 2.2, I 2.15

Variants of: B2
Experiment: as above
Conditions: c terminus: a fixed tail appended

Protein stability index, by site and new letter:
S9: H 2.02, G 2.41, Q 2.63, D 2.6, M 1.9, C 1.96, N 2.61, I 2.12, W 2.31, R 2.68, Y 2.21, F 1.45, E 2.58, L 1.93, K 1.94, A 3.21, V 2.17, T 2.1, P 2.61
G11: D 2.89, A 2.5, C 1.9
A1: V 1.78, W 1.89, H 3.13, R 2.58, C 1.41, Q 2.77, Y 2.21, M 1.61, K 3.26, P 2.94, N 2.83, I 2.67, S 2.08, D 2.83, L 2.07, F 1.89, T 2.71, G 2.84, E 3.11
P6: C 1.34, I 2.85, G 1.62, D 2.31, T 2.21, A 1.64, M 2.29, F 2.09, H 1.95, N 2.14, S 2.47, L 2.4, Y 2.36, Q 2, K 2.37, R 1.53, E 2.62, W 2.9
L3: R 3.47, D 3.96, N 3.57, E 3.66, P 4.08, H 3.19, M 2.41, Y 2.08, S 2.87, T 3.23, Q 3.43, F 2.68, V 2.93, A 3.14, G 3.43, I 2.28, C 2.7, W 3.01, K 3.45
H7: W 1.56, V 2.45, E 2.83, S 2.4, A 2.29, T 2.41, P 2.78, N 2.2, K 2.69, M 2.1, I 2.39, Q 2.4, R 2.67, L 1.97, D 2.9, C 2.12, Y 2.34, G 2.74, F 1.85
G10: S 2.7, R 2.07, I 2.55, M 2.3, Y 1.9, C 2.55, K 2.01, H 2.34, F 2.36, T 2.1, N 2.42, L 2.22, V 2.2, E 2.96, W 1.25, Q 2.08, A 2.24, D 2.67, P 2.44
E4: A 2.24, Y 2.2, D 2.42, N 2.09, T 2.03, R 1.76, F 1.4, Q 1.93, K 1.68, V 1.9, H 2.12, P 3.3, M 1.56, L 2.21, G 2.13, C 2.17, I 3.55, S 2.19
G8: R 2.1, N 2.53, A 2.86, C 2.19, K 2.42, D 2.75, S 2.71, L 1.96, F 1.71, T 2.27, W 1.93, E 3.31, Y 1.97, I 1.88, Q 2.02, H 2.27, M 2.57, P 2.21, V 1.68
F2: L 3.08, S 3.63, V 3.2, R 3.22, Y 2.82, C 3.58, Q 3.65, M 2.83, P 4.04, E 4.25, K 3.76, H 3.88, N 4.05, A 3.45, I 2.94, G 3.33, W 2.11, D 3.93, T 3.49
L5: P 3.17, E 2.83, A 2.79, K 2.59, D 2.81, N 2.74, S 2.8, C 2.51, F 2.29, M 2.69, G 3.25, I 2.43, Q 2.83, H 2.9, Y 2.39, W 2.32, V 2.59, T 2.61, R 2.71
